Source: US20240279341A1 (Alector, published 2024)

T1: human MerTK on M2c-differentiated human macrophages (human, UniProt Q12866 21-999)
T1 construct: Endogenous MerTK of primary human macrophages; also called M2c-huMacrophages
T1 sequence: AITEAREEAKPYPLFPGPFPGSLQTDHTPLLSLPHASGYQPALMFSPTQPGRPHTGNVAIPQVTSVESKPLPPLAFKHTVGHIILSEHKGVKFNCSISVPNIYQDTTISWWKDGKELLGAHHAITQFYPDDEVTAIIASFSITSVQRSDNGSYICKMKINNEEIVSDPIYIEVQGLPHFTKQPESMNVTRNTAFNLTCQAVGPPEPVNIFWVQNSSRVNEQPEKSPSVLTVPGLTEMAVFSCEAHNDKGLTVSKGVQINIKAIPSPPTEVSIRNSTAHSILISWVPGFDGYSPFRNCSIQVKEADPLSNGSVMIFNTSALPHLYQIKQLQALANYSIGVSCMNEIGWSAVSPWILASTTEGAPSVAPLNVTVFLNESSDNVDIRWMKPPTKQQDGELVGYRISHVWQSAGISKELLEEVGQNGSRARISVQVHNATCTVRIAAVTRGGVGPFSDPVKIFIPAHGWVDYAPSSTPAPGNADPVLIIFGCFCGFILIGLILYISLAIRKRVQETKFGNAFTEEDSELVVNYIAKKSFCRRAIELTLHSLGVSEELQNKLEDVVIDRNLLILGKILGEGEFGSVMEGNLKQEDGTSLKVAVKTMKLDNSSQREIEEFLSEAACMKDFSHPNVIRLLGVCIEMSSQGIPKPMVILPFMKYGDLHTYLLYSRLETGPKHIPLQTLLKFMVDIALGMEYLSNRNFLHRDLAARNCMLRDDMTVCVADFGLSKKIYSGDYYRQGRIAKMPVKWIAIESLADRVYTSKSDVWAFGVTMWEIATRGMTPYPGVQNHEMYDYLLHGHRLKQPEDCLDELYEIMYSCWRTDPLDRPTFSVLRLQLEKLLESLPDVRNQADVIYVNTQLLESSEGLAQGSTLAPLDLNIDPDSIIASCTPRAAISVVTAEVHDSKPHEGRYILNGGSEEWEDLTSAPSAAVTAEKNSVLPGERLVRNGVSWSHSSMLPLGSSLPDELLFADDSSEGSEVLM

T2: human MerTK overexpressed on CHO cells (human, UniProt Q12866 21-999)
T2 construct: also called CHO-huMerTK OE; CHO-human MerTK OE cells
T2 sequence: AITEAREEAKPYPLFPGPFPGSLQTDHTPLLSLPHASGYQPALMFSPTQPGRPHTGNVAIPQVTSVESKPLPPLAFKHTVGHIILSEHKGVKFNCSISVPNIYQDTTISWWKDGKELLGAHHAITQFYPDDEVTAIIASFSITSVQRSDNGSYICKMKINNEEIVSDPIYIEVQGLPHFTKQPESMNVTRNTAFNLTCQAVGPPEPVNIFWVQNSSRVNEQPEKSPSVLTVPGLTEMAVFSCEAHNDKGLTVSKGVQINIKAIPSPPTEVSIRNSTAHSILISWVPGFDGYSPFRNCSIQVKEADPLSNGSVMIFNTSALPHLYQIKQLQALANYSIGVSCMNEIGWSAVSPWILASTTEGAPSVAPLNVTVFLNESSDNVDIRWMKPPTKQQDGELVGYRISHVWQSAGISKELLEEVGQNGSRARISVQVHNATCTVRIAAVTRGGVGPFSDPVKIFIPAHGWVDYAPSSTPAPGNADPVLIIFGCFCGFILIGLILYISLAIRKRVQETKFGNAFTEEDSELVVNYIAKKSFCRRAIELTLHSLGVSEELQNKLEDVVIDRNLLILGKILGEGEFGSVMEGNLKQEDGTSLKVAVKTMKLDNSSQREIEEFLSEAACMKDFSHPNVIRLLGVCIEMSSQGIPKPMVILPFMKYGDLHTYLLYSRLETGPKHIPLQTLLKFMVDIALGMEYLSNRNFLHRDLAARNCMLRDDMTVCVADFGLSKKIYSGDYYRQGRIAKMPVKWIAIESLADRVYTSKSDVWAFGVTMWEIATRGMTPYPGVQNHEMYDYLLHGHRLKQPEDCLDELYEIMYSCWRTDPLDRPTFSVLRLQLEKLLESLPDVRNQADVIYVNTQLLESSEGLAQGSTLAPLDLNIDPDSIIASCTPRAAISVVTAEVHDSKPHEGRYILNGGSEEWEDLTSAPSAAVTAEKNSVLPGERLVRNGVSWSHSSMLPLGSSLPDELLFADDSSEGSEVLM


Legend:
[1] = molecular target: T3, human PDL1 (human, UniProt Q9NZQ7 19-290); experiment: flow cytometry on CHO-huPDL1 OE cells, Dylight650-conjugated antibody
T3 construct: whole, on cells; Also used as the target for the monovalent anti-PDL1 antibody on M2c-differentiated human macrophages (endogenous PDL1); also called huPDL1; programmed death-ligand 1
Text: (§1) Human macrophages were differentiated from human monocytes for 7 days in the presence of human M-CSF, resulting in M2c-differentiated human macrophages. After 7 days, the differentiated human macrophages were harvested (by scraping), resuspended in PBS, and plated on 96-well plates for use. CHO cells overexpressing human MerTK (CHO-huMerTK OE), CHO cells overexpressing human PDL1 (CHO-huPDL1 OE), and M2c-differentiated human macrophages were stained with Dylight650-conjugated bispecific anti-MerTK:anti-PDL1 antibodies, or bivalent anti-MerTK antibodies for 30 min on ice. A range of antibody concentrations were used in these studies to obtain binding curves. All antibodies tested in these studies were IgG1 having Fc regions comprising LALAPS mutations. Cells were fixed and then acquired on a BD FACS Canto II cytometer. The mean fluorescence intensity (MFI) was calculated using FlowJo software and Kd value was calculated using Prism software.

[2] = molecular target: T3, human PDL1; experiment: flow cytometry, Dylight650-conjugated antibody on CHO-huPDL1 OE cells, MFI
Description: (§2) To determine whether bispecific anti-MerTK:anti-PDL1 antibodies of the present disclosure bind to different cell types, the following experiments were performed. Cells used in these studies included CHO cells overexpressing human MerTK (CHO-human MerTK OE cells), CHO cells overexpressing human PDL1 (CHO-human PDL1 OE cells), and M2c-differentiated human macrophages.
as §1

[3] = molecular target: T1, human MerTK on M2c-differentiated human …; experiment: flow cytometry on M2c-differentiated human macrophages
Text: as §1

[4] = molecular target: T2, human MerTK overexpressed on CHO cells; experiment: flow cytometry on CHO-huMerTK OE cells
Text: as §1

[5] = molecular target: T2, human MerTK overexpressed on CHO cells; experiment: flow cytometry, Dylight650-conjugated antibody on CHO-huMerTK OE cells, MFI
Description: as §2, §1

T3 sequence (Q9NZQ7 19-290): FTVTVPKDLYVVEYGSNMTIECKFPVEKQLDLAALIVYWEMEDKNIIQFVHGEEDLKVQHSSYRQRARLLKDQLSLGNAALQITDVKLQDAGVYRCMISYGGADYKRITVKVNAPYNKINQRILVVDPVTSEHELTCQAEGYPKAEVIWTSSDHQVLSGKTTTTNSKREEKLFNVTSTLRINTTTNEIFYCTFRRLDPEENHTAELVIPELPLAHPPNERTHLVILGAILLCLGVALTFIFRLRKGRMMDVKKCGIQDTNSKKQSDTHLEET

binding result [1]	binding result [2]	fold higher affinity compared to its monovalent form (monovalent MTK-33.11) [3]	fold higher affinity compared to its monovalent form (monovalent MTK-33.11) [4]	EC50 (read off the curve) [5]	Binder
no binding					monovalent anti-MerTK antibody MTK-33.11 (antibody, V domains shown) VH: QVQLVQSGAEVKKPGASVKVSCKASGYTFTSYWMHWVRQAPGQGLEWIGVIDPSDNYINYNQKFQGRVTMTRDTSTSTVYMELSSLRSEDTAVYYCAREAWTRGYFDYWGQGTLVTVSS VL: DIQMTQSPSSLSASVGDRVTITCQASRSVRNTVAWYQQKPGKAPKLLIYYASNRYTGVPSRFSGSGSGTDFTFTISSLQPEDIATYYCQQDYRSPFTFGQGTKLEIK
	no binding (tested: about 70 nM)	~5 fold	~10 fold	~4 nM	bivalent anti-MerTK antibody MTK-33.11 (full IgG) (antibody, V domains shown) VH: QVQLVQSGAEVKKPGASVKVSCKASGYTFTSYWMHWVRQAPGQGLEWIGVIDPSDNYINYNQKFQGRVTMTRDTSTSTVYMELSSLRSEDTAVYYCAREAWTRGYFDYWGQGTLVTVSS VL: DIQMTQSPSSLSASVGDRVTITCQASRSVRNTVAWYQQKPGKAPKLLIYYASNRYTGVPSRFSGSGSGTDFTFTISSLQPEDIATYYCQQDYRSPFTFGQGTKLEIKR

Second part, the binder before the results:

Binder	binding result [1]	binding result [2]	fold higher affinity compared to its monovalent form (monovalent MTK-33.11) [3]	fold higher affinity compared to its monovalent form (monovalent MTK-33.11) [4]	EC50 (read off the curve) [5]
monovalent anti-MerTK antibody MTK-16.2 (antibody, V domains shown) VH: QVQLVQSGSELKKPGASVKVSCKASGYTFTNHGMNWVRQAPGQGLEWMGWINTYTGEPTYADDFKGRFVFSLDTSVSTAYLQISSLKAEDTAVYYCARKGVTAARYFDYWGQGTLVTVSS VL: DIQMTQSPSSLSASVGDRVTITCRASQNVRTAVAWYQQKPGKAPKRLIYLASNRHTGVPSRFSGSGSGTEFTLTISNLQPEDFATYYCLQHWNYPLTFGGGTKLEIK	no binding				
bivalent anti-MerTK antibody MTK-16.2 (full IgG) (antibody, V domains shown) VH: QVQLVQSGSELKKPGASVKVSCKASGYTFTNHGMNWVRQAPGQGLEWMGWINTYTGEPTYADDFKGRFVFSLDTSVSTAYLQISSLKAEDTAVYYCARKGVTAARYFDYWGQGTLVTVSS VL: DIQMTQSPSSLSASVGDRVTITCRASQNVRTAVAWYQQKPGKAPKRLIYLASNRHTGVPSRFSGSGSGTEFTLTISNLQPEDFATYYCLQHWNYPLTFGGGTKLEIKR		no binding (tested: about 70 nM)			
